Measured values taken from PMC3361065 (Biochemistry, 2012).

Experiments:
Assay in all cases: EMSA
[1] = target: yeast mitochondrial RNA polymerase (scMtRNAP) WT;MTF1 (yeast mitochondrial transcription factor) (Saccharomyces cerevisiae?;Saccharomyces …, UniProt P13433;P14908 1-1351;1-341, |)
[2] = target: scMtRNAP ΔHNG;MTF1 (yeast mitochondrial transcription factor) (Saccharomyces cerevisiae?;Saccharomyces …, UniProt P13433;P14908 1-640+644-1351;1-341, internal_change|)
[3] = target: scMtRNAP ΔNGS;MTF1 (yeast mitochondrial transcription factor) (Saccharomyces cerevisiae?;Saccharomyces …, UniProt P13433;P14908 1-641+645-1351;1-341, internal_change|)
scMtRNAP ΔHNG = target: T1, scMtRNAP ΔHNG (UniProt P13433 1-640+644-1351, internal_change)
T1 sequence: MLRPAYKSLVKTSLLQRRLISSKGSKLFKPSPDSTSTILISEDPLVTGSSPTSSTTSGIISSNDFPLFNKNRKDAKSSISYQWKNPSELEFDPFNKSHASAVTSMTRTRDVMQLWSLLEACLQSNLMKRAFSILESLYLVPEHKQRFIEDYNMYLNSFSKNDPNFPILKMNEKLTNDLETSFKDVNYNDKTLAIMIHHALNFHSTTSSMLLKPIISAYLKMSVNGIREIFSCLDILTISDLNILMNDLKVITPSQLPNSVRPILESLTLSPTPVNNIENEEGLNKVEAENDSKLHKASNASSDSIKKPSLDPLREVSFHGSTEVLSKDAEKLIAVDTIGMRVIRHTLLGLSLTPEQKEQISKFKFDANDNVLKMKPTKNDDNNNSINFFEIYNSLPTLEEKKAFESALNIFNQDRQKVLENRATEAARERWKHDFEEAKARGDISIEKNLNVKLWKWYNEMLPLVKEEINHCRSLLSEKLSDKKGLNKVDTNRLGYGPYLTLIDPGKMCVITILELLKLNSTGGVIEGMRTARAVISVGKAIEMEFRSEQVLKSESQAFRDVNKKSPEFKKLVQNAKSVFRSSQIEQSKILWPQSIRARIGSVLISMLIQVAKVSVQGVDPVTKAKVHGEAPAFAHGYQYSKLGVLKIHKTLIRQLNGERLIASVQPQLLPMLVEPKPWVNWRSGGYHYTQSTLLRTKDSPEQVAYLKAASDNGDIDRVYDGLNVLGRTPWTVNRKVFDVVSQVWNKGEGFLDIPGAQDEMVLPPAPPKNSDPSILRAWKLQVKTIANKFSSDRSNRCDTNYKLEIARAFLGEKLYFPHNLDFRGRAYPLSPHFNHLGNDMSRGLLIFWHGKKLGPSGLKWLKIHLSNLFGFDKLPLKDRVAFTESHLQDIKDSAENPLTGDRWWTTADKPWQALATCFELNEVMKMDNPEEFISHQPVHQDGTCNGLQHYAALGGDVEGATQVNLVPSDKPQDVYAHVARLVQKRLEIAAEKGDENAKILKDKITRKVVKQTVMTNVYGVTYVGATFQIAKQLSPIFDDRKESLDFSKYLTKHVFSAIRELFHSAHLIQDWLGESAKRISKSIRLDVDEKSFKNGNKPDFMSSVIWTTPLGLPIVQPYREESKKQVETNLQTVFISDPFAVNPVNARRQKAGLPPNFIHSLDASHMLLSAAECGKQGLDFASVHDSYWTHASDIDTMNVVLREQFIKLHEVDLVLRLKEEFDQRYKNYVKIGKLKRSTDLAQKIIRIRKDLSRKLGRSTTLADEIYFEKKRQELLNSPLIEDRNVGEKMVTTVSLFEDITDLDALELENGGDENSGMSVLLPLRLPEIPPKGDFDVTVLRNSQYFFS

[4] = target: T2, yeast mitochondrial RNA polymerase (scMtRNAP) WT (UniProt P13433 1-1351)
T2 sequence: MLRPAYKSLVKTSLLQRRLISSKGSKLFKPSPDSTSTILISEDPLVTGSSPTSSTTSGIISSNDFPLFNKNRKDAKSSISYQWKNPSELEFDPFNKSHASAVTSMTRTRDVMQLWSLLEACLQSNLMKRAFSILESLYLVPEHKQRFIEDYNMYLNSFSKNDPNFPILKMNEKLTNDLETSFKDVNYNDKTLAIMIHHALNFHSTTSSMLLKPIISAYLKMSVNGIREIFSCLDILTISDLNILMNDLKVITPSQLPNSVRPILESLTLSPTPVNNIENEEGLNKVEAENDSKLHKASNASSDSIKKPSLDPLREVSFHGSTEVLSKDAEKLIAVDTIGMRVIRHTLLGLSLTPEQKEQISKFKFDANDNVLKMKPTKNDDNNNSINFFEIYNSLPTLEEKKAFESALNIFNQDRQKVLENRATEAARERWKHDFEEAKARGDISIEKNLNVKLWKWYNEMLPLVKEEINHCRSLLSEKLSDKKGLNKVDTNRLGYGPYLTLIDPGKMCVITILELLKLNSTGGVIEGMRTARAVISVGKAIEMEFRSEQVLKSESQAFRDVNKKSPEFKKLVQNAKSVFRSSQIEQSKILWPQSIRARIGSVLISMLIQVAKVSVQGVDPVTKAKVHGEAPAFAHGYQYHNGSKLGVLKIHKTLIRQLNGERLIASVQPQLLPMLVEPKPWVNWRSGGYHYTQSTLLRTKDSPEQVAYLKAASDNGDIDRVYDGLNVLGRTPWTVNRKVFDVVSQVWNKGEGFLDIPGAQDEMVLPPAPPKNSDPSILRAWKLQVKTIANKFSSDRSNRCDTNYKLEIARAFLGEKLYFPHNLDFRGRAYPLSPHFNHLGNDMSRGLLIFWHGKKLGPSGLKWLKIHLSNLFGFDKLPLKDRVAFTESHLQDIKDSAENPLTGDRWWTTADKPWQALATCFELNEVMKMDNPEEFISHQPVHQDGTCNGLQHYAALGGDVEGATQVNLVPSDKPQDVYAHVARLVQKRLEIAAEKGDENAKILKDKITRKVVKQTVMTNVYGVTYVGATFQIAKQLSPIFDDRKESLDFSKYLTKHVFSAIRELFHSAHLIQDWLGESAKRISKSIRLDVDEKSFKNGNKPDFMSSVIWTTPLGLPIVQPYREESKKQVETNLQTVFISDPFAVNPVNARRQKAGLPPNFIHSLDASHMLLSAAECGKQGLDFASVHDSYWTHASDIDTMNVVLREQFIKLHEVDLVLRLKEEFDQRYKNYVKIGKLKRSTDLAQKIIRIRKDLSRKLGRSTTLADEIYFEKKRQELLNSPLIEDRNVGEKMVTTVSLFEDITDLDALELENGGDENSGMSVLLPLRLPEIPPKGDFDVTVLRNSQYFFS

scMtRNAP ΔNGS;MTF1 (yeast mitochondrial transcription factor), sequence (P14908 whole entry, stated change not applied, one chain of several): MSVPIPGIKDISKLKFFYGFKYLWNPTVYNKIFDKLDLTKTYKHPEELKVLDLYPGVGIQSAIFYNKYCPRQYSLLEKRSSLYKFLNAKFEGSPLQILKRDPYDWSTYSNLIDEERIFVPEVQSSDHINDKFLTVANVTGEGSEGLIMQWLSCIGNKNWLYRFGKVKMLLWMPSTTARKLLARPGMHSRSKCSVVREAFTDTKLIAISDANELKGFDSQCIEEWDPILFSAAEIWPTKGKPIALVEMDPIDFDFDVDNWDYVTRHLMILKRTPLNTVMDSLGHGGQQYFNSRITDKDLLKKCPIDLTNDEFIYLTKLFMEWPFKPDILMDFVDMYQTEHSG

B1: 33 bp Bubble (pre-melted) promoter (dsDNA)
DNA 1: CGCGTAAAACTATTCTTTATTACTTATATCGCG
DNA 2: CGCGATATGCAGCTTAAAGAATAGTTTTACGCG
**Q.** Which Kd [1] does the source give for B1 here?
**A.** 160 nM

**Q.** And the Kd [2]?
**A.** 340 nM

**Q.** And the Kd [3]?
**A.** 430 nM

**Q.** And the Kd (scMtRNAP ΔHNG)?
**A.** 5300 nM

**Q.** What about the Kd [4] of the same binder?
**A.** 4300 nM
